For one molecule, Kd results are on record in paper PMC12823420.

For one data set, the target named is UAP56 (Homo sapiens, UniProt Q13838 1-428). Nature of the data set: GCI; 1 mM ATP; RNA immobilized; GCI: 25 mM HEPES pH 7.9, 50 mM KCl, 1 mM MgCl2, 1 mM TCEP, 1 mM ATP, 25 C; AdML pull-down: 20 mM HEPES pH 7.9, 100 mM KCl, 2 mM MgCl2, 5% glycerol, 0.1% Igepal, 1 mM AMP-PNP, RT; unclamping: same with 40 mM KCl, 500 mM KCl washes. Particulars: protein: recombinant; otherwise unlabelled; single strand.

In a further data set the target is UAP56-UCM-1 fusion (Homo sapiens, UniProt Q13838 1-428+P82979:82-115, internal_change). The description is as above. The settings on record: protein: recombinant; tags: 10xHis; otherwise unlabelled; single strand.

B1: 15U RNA (ssRNA)
RNA: UUUUUUUUUUUUUUU
As usually defined, the Kd is the concentration at which binding is half-saturated. Consider B1, for which the figures for the Kd in the data set with UAP56 and with UAP56-UCM-1 fusion were 780 ± 90 nM and 270 ± 60 nM, respectively.
